Paper PMC8809517, “Cofactor-independent RNA editing by a synthetic S-type PPR protein”
Where a chain is given by its changes, count along the chain named.

T1: GFP-9S library array, motif 4 ND N98T;D124L (synthetic construct, N98T;D124L)
T1 chain: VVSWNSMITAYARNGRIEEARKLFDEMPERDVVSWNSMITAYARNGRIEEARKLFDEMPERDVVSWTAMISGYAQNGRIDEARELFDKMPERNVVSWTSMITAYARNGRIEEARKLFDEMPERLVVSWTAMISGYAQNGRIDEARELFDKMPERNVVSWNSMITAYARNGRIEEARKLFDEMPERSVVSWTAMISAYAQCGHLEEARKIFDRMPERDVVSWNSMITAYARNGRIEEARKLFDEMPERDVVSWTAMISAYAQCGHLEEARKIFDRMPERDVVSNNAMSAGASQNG

T2: GFP-9S library array, motif 4 ND N98G;D124M (synthetic construct, N98G;D124M)
T2 chain: T1 chain with T98G, L124M

T3: GFP-9S library array, motif 4 ND N98R;D124R (synthetic construct, N98R;D124R)
T3 chain: T1 chain with T98R, L124R

T4: GFP-9S library array, motif 4 ND N98T (synthetic construct, N98T)
T4 chain: T1 chain with L124D

T5: GFP-9S library array, motif 4 ND N98Q;D124V (synthetic construct, N98Q;D124V)
T5 chain: T1 chain with T98Q, L124V


How the values were obtained:
Test in all cases: high-throughput RNA pulldown from lysate on Ni-NTA beads; HRP: 50 mM Tris pH 8, 150 mM NaCl, 1 mM beta-mercaptoethanol, 50 ug/ml BSA, 3 ug/ml yeast RNA, 0.5% heparin; ITC and FP: Tris pH 8, 200 mM KCl, 5% glycerol; MST: 50 mM Tris pH 8, 200 mM NaCl, 1 mM DTT, BSA, heparin, 0.05% Tween 20
Settings in all cases: tags: N-terminal His-eGFP
[1] = target: T1, GFP-9S library array, motif 4 ND …
[2] = target: T2, GFP-9S library array, motif 4 ND …
[3] = target: T3, GFP-9S library array, motif 4 ND …
[4] = target: T4, GFP-9S library array, motif 4 ND N98T
[5] = target: T5, GFP-9S library array, motif 4 ND …

Binder	Kd ([1]; label: 5' IRDye 800CW) [nM]	Kd ([2]; label: 5' IRDye 800CW) [nM]	Kd ([3]; label: 5' IRDye 800CW) [nM]	Kd ([4]; label: 5' IRDye 800CW) [nM]	Kd ([5]; label: 5' IRDye 800CW) [nM]	Kd ([1]; label: 5' Cy5) [nM]	Kd ([2]; label: 5' Cy5) [nM]	Kd ([3]; label: 5' Cy5) [nM]	Kd ([4]; label: 5' Cy5) [nM]	Kd ([5]; label: 5' Cy5) [nM]
AUUAUACGUGA (ssRNA) [IR-rpoA-U]	174	149	97.9	23	3180	–	–	–	–	–
AUUACACGUGA (ssRNA) [Cy5-rpoA]	–	–	–	–	–	120	57.8	97.6	97.5	3530
AUUAGACGUGA (ssRNA) [Cy5-rpoA-G]	–	–	–	–	–	120	66	53.3	5.06	3040
AUUAAACGUGA (ssRNA) [IR-rpoA-A]	169	94.3	82	91.7	4090	–	–	–	–	–
